Here are results for 3 molecules from patent US20200317791A1 (Janssen / Centocor, published 2020).

Read-outs that look alike come from different tables or passages of the source.

In test [1] the target is T1, A24_A*24:02 (human, UniProt A*24:02).
T1 construct: on LABScreen bead; also called HLA-A*24:02 (LABScreen class I bead)
T1 heavy chain: not shown
Kind of test: LABScreen beads.

The target in test [2] is T2, CW6W36 (rhHLA-Cw6/ADAMTSL5) (human).
T2 construct: also called CW6W36.002; rHLA-Cw6/ADAMTSL5
Kind of test: SPR Biacore 8K, captured mAb; Acceptable fit.
Text: (§1) To further characterize the ability of the antibodies to differentiate between class I MHC molecules.

Test [3] addresses CW6W35.001. Kind of test: SPR Biacore 8K, captured mAb; Acceptable fit.
Text: as §1
Test [4] addresses CW6W51.001. Kind of test: SPR Biacore 8K, captured mAb; Acceptable fit.
Text: as §1
Test [5] deals with CW6W53.001. Kind of test: SPR Biacore 8K, captured mAb; Acceptable fit.
Text: as §1
Test [6] addresses CW6W54.001. Kind of test: SPR Biacore 8K, captured mAb; Acceptable fit.
Text: as §1
In test [7] the target is T3, CW6W32 (rhHLA-Cw6/TRAT) (human).
T3 construct: also called CW6W32.009; rHLA-Cw6/TRAT
Kind of test: SPR Biacore 8K, captured mAb; Kinetic fit not valid.

Test [8] concerns the target T4, CW6W3.ECO.PP.002/.003 (rhHLA-Cw6/ARF) (human).
T4 construct: also called rhHLA-Cw6/ARFN; rHLA-Cw6/ARFN
Kind of test: SPR ProteOn XPR36, captured mAb; valid kinetic fit, range of two replicates.
Experimental: (§2) Anti-HLA-Cw6 mAbs were captured at ligand densities ranging from 100 to 200 response units. […] All analyses were conducted in PBST at 100 μL/min flow rate with association and dissociation times of 180 and 900 seconds, respectively. […] Analyte raw data was double referenced by subtraction of the blank surface response at “interspots” (to correct for refractive index changes and any non-specific interactions with the chip surface) and of the buffer blank response (to correct for any baseline drift resulting from mAb dissociation over time). Referenced data were globally fit to a 1:1 simple Langmuir binding model. Kinetic parameters were calculated for each mAb/antigen combination or interaction using Bio-Rad ProteOn Manager software (version 3.1.0.6) with parameter (kon, koff, Rmax) scope and type set to “Grouped” and “Fitted,” respectively.

Test [9] deals with T4, CW6W3.ECO.PP.002/.003 (rhHLA-Cw6/ARF). Kind of test: SPR ProteOn XPR36, captured mAb; valid kinetic fit, range of two replicates (upper end).
Experimental: as §2
Test [10] has as its target T1, A24_A*24:02. Kind of test: LABScreen beads.
The target in test [11] is T4, CW6W3.ECO.PP.002/.003 (rhHLA-Cw6/ARF). Kind of test: SPR ProteOn XPR36, captured mAb.
Experimental: as §2
Test [12] concerns the target T3, CW6W32 (rhHLA-Cw6/TRAT). Kind of test: SPR ProteOn XPR36, captured mAb; valid kinetic fit.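 Also: Anti-HLA-Cw6 mAbs captured at 100–200 RU, antigen flowed in PBST, 180 s association and 900 s dissociation, double-referenced sensorgrams globally fit to a 1:1 Langmuir model.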
Experimental: as §2
The target in test [13] is CW6W35.001. Kind of test: SPR Biacore 8K, captured mAb; Kinetic fit not valid.
Test [14] addresses CW6W51.001. Described as above.
Test [15] concerns the target CW6W53.001. The test is described as above.
Test [16] concerns the target CW6W54.001. The test is described as above.
Test [17] concerns the target T2, CW6W36 (rhHLA-Cw6/ADAMTSL5). Kind of test: SPR ProteOn XPR36, captured mAb; valid kinetic fit, range of two replicates.
Experimental: as §2
For test [18] the target is unchanged. Kind of test: SPR ProteOn XPR36, captured mAb; valid kinetic fit, range of two replicates (second end).
Experimental: as §2
Test [19] has as its target T1, A24_A*24:02. Kind of test: LABScreen beads.
Experimental: The LAB Screen (One Lambda) assay investigates antibody binding to a panel of 97 Class I HLA alleles (HLA-A, -B, and -C) using a bead-based fluorescent flow technology (Luminex 100; Luminex; Austin, Tex.). In a 96-well assay plate, 5 μl of the LAB Screen (One Lambda #LS1A04) beads were incubated with 20 μl of each test antibody (10 μg/ml) for 30 minutes in the dark at RT with gentle shaking. After the incubation was complete, 150 μl of the supplied 1X wash buffer was added to each well, and the plate was centrifuged at 1300×g for 5 minutes at RT. The wash solution was removed by flicking, and the plates were washed one more time. A 1× PE-conjugated anti-human IgG (One Lambda #LSAB-2) solution was prepared and 100 μl/well added to the assay plate. The plate was incubated for 30 minutes in the dark at RT with gentle shaking. The beads were then washed twice as described above, and then 80 μl/well of 1× PBS was added to each well. The plate was analyzed on a Luminex 100 instrument, and the data was analyzed using the Fusion 3.0 Software (One Lambda).
Purified antibodies were analyzed for allelic specificity by the LAB SCREEN® assay, which evaluates qualitative antibody binding to 97 Class I HLA alleles (HLA-A, -B and -C) using bead-based fluorescent flow technology (Luminex 100).
Test [20] concerns the target T3, CW6W32 (rhHLA-Cw6/TRAT). Kind of test: SPR ProteOn XPR36, captured mAb.
Experimental: as §2
The target in test [21] is T2, CW6W36 (rhHLA-Cw6/ADAMTSL5). Kind of test: SPR ProteOn XPR36, captured mAb.
Experimental: as §2
Test [22] addresses T4, CW6W3.ECO.PP.002/.003 (rhHLA-Cw6/ARF). Kind of test: SPR ProteOn XPR36, captured mAb; valid kinetic fit.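 Also: Anti-HLA-Cw6 mAbs captured at 100–200 RU, antigen flowed in PBST, 180 s association and 900 s dissociation, double-referenced sensorgrams globally fit to a 1:1 Langmuir model.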
Experimental: as §2

B1: CW6B175 (antibody, V domains shown)
VH: EVQLVESGGGLVQPGGSLRLSCAASGFTFTNYWMTWVRQAPGKGLEWVANIKQSGSEKYYVDSVKGRFTISRDNAKNSLYLQMNSLRAEDTAVYYCARTLYEWELEPFDYWGQGTLVTVSS
VL: SYVLTQPPSVSVAPGQTARITCGGNRIGSKSVHWYQQKPGQAPVLVVFDDSDRPSGIPERFSGSNSGITATLTISRVEAGDEADYYCQVWDSSNDHVVFGGGTKLTVL
notes: also called CW6B175.001; CW6M175 (DNA ID)
In the case of B1, in the test with A24_A*24:02 [1], the binding result is “no binding (tested: 10 µg/ml)”. For the same molecule, the Kd in [2] was 1.87 nM; with CW6W35.001 [3], 0.12 nM; with CW6W51.001 [4], 0.157 nM; in the test with CW6W53.001 [5], 0.327 nM; in the test with CW6W54.001 [6], 0.128 nM; in the test with CW6W32 (rhHLA-Cw6/TRAT) [7] it was 0.663 nM. Besides, the Kd worked out at 0.0285 nM in test [8] and 0.0346 nM in test [9]. The koff in test [2] was 0.0163 s⁻¹; with CW6W35.001 [3], 0.000126 s⁻¹; with CW6W51.001 [4], 0.000285 s⁻¹; in the test with CW6W53.001 [5] it was 0.00056 s⁻¹; with CW6W54.001 [6], 0.000842 s⁻¹; in the test with CW6W32 (rhHLA-Cw6/TRAT) [7], 0.284 s⁻¹. Besides, the values for the koff in test [8] and in test [9] were 0.000314 s⁻¹ and 0.000363 s⁻¹, respectively. In addition, the kon in test [2] came out at 8.73e+06 M⁻¹ s⁻¹; in the test with CW6W35.001 [3], 1.05e+06 M⁻¹ s⁻¹; in the test with CW6W51.001 [4] it was 1.82e+06 M⁻¹ s⁻¹; in the test with CW6W53.001 [5], 1.72e+06 M⁻¹ s⁻¹; in the test with CW6W54.001 [6], 6.6e+06 M⁻¹ s⁻¹; in the test with CW6W32 (rhHLA-Cw6/TRAT) [7], 4.28e+08 M⁻¹ s⁻¹. In addition, the figures for the kon in test [8] and in test [9] were 1.05e+07 M⁻¹ s⁻¹ and 1.1e+07 M⁻¹ s⁻¹, respectively.

B2: CW6B130 (antibody, V domains shown)
VH: QLQLQESGPGLVKPSETLSLTCTVSGASISSINYYWGWIRQPPGKGLEWIGSFYYSGNTYYNPSLKSRVTISVDTSKNYFSLKLNSVTAADTAVYYCAREYYDSSGYYPFEPWGQGTLVTVSS
VL: SYVLTQPPSVSVAPGQTARITCGGDNIGSESVHWYQQKPGQAPVLVVYDDTDRPSGIPERFSGSKSGTTATLTISWVEAGDEADYYCQVWDSSSDHVVFGGGTKLTVL
notes: also called CW6B130.001; CW6M130 (DNA ID)
In the case of B2, the binding result in the test with A24_A*24:02 [10] is recorded as “no binding (tested: 10 µg/ml)”; in test [11] it was “binds”. Further, the Kd in [2] was determined as 0.272 nM; with CW6W32 (rhHLA-Cw6/TRAT) [12] it was 0.27 nM; in the test with CW6W32 (rhHLA-Cw6/TRAT) [7], 0.622 nM; with CW6W35.001 [13] it was 6.04 nM; in the test with CW6W51.001 [14], 0.571 nM; with CW6W53.001 [15] it was 0.205 nM. Further, the Kd with CW6W54.001 [16] turned out to be 0.0828 nM; in [17], 0.0586 nM; in test [18] it was 0.0713 nM. In addition, the koff in test [2] came out at 0.00184 s⁻¹; in the test with CW6W32 (rhHLA-Cw6/TRAT) [12], 0.00272 s⁻¹; with CW6W32 (rhHLA-Cw6/TRAT) [7], 0.00509 s⁻¹; with CW6W35.001 [13], 0.0101 s⁻¹; with CW6W51.001 [14], 0.000389 s⁻¹; with CW6W53.001 [15], 0.0054 s⁻¹. Besides, the koff with CW6W54.001 [16] was 0.00204 s⁻¹; in test [17], 0.00124 s⁻¹; in test [18], 0.00097 s⁻¹. Besides, the kon came out at 6.77e+06 M⁻¹ s⁻¹ in [2]; 1.03e+07 M⁻¹ s⁻¹ with CW6W32 (rhHLA-Cw6/TRAT) [12]; 8.2e+06 M⁻¹ s⁻¹ with CW6W32 (rhHLA-Cw6/TRAT) [7]; 1.67e+06 M⁻¹ s⁻¹ with CW6W35.001 [13]; 681000 M⁻¹ s⁻¹ in the test with CW6W51.001 [14]; 2.63e+07 M⁻¹ s⁻¹ with CW6W53.001 [15]. Besides, the kon was 2.47e+07 M⁻¹ s⁻¹ with CW6W54.001 [16], 1.66e+07 M⁻¹ s⁻¹ in test [17] and 1.75e+07 M⁻¹ s⁻¹ in test [18].

B3: CW6B188 (antibody, V domains shown)
VH: EVQLVESGGGLVQPGGSLRLSCAASGFTFTNYWMTWVRQAPGKGLEWVANIKQSGNEKYYVDSVKGRFTISRDNAKNSLYLQMNSLRAEDTAVYYCARTLYEWELEPFDYWGQGTLVTVSS
VL: SYVLTQPPSVSVAPGQTARITCGGNRIGSKNLHWYQQKPGQAPVLVVYDDSDRPSGIPERFSGSNSGSTATLTISRVEAGDEADYYCQVWDSSRDHVVFGGGTKLTVL
notes: also called CW6B188.001; CW6M188 (DNA ID)
Take B3: the binding result with A24_A*24:02 [19] was “no binding (tested: 10 µg/ml)”. The binding result with CW6W32 (rhHLA-Cw6/TRAT) [20] was “binds”. The binding result in test [21] was “binds”. In test [22], this molecule yielded a Kd of 0.12 nM, a koff of 0.000574 s⁻¹ and an association rate constant (kon) of 5.66e+06 M⁻¹ s⁻¹.
